Measurements as given in PMC6555819, “Comprehensive study of nuclear receptor DNA binding provides a revised framework for understanding receptor specificity”.
Residue numbers refer to the chain shown, from its start.

B1: NRC3_random_hg19_171_o1 (dsDNA)
DNA 1: GCGGGCTACTGCCTAGGGTGCCTTGGCACAGCCAGCGCGATTGACAGCGTAGAATGAAGG
DNA 2: CCTTCATTCTACGCTGTCAATCGCGCTGGCTGTGCCAAGGCACCCTAGGCAGTAGCCCGC
B2: NRC3_random_hg19_130_o1 (dsDNA)
DNA 1: GCGAGATCAAGACCATCCTGGCTAACATGGTGAAACGCGATTGACAGCGTAGAATGAAGG
DNA 2: CCTTCATTCTACGCTGTCAATCGCGTTTCACCATGTTAGCCAGGATGGTCTTGATCTCGC
B3: NRC3_random_hg19_209_o1 (dsDNA)
DNA 1: GCGAGTTTCCAGCAGATGGCCATCACAACAATACTGGCGATTGACAGCGTAGAATGAAGG
DNA 2: CCTTCATTCTACGCTGTCAATCGCCAGTATTGTTGTGATGGCCATCTGCTGGAAACTCGC
B4: NRC3_wobSeed50_DR2_T20C_o1 (dsDNA)
DNA 1: GCCCTAGTTGGTCAGGAGGCCACACACCGGATATGAGCGATTGACAGCGTAGAATGAAGG
DNA 2: CCTTCATTCTACGCTGTCAATCGCTCATATCCGGTGTGTGGCCTCCTGACCAACTAGGGC
B5: NRC3_random_hg19_309_o1 (dsDNA)
DNA 1: GCCTTAGCTGGGATCTTATCTGTACAGTATCTGGGAGCGATTGACAGCGTAGAATGAAGG
DNA 2: CCTTCATTCTACGCTGTCAATCGCTCCCAGATACTGTACAGATAAGATCCCAGCTAAGGC
B6: NRC3_random_hg19_54_o1 (dsDNA)
DNA 1: GCAGGTAATGTATTCACAGGTTCTGGGACGTCATTGGCGATTGACAGCGTAGAATGAAGG
DNA 2: CCTTCATTCTACGCTGTCAATCGCCAATGACGTCCCAGAACCTGTGAATACATTACCTGC
B7: NRC3_random_hg19_381_o1 (dsDNA)
DNA 1: GCCATGAGCGTGGAATGTTCTTCCATTTGTTCATATGCGATTGACAGCGTAGAATGAAGG
DNA 2: CCTTCATTCTACGCTGTCAATCGCATATGAACAAATGGAAGAACATTCCACGCTCATGGC
B8: NRC3_wobSeed89_DR3_A15G_o1 (dsDNA)
DNA 1: GCCTATGTAGGTTAGGGGGGTCATTCAGTTTGAAAGGCGATTGACAGCGTAGAATGAAGG
DNA 2: CCTTCATTCTACGCTGTCAATCGCCTTTCAAACTGAATGACCCCCCTAACCTACATAGGC
B9: NRC3_wobSeed89_DR3_A9G_o1 (dsDNA)
DNA 1: B8 DNA 1 with A9G, G15A
DNA 2: B8 DNA 2 with C46T, T52C
B10: NRC3_wobSeed89_DR3_A15C_o1 (dsDNA)
DNA 1: B8 DNA 1 with G15C
DNA 2: B8 DNA 2 with C46G
B11: NRC3_wobSeed120_DR4_G7A_o1 (dsDNA)
DNA 1: GCCCGAATAGGTTACGAGGGGGCATTCAGTGCGAATGCGATTGACAGCGTAGAATGAAGG
DNA 2: CCTTCATTCTACGCTGTCAATCGCATTCGCACTGAATGCCCCCTCGTAACCTATTCGGGC
B12: NRC3_wobSeed25_DR1_A5C_o1 (dsDNA)
DNA 1: GCCACACTAGGTCAAAGGTCAAAGTCGAGCCAACCAGCGATTGACAGCGTAGAATGAAGG
DNA 2: CCTTCATTCTACGCTGTCAATCGCTGGTTGGCTCGACTTTGACCTTTGACCTAGTGTGGC

Target: RXRa (Homo sapiens, UniProt P19793)
Sequence (P19793 whole entry): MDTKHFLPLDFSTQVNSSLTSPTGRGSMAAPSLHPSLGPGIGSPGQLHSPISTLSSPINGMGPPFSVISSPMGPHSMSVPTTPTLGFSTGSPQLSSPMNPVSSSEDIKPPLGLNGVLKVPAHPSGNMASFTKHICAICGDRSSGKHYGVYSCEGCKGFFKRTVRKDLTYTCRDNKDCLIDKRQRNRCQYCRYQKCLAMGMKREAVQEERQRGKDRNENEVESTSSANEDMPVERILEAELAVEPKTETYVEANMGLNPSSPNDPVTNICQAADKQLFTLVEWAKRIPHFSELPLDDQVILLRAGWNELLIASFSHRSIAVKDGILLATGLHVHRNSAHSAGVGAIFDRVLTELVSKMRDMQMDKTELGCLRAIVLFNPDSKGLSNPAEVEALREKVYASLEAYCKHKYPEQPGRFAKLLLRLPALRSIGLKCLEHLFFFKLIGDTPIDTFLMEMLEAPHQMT
Assay: no ligand; PBM; 180 nM; PBS pH 7.4, 2% milk, 0.02% Triton X-100, 1 mM DTT, BSA, 0.4 mg/ml salmon testes DNA
Conditions: tags: His cleaved; chain copies: 2; label: surface-attached array probe

Point of comparison: B3, binding signal -0.14 PBM z-score against 500 random probes. Against it:
- B1 — lower, -0.92 PBM z-score against 500 random probes
- B2 — lower, -0.18 PBM z-score against 500 random probes
- B4 — higher, 0.4 PBM z-score against 500 random probes
- B5 — lower, -0.37 PBM z-score against 500 random probes
- B6 — higher, -0.06 PBM z-score against 500 random probes

Target: RARg:RXRa (Homo sapiens, UniProt P13631;P19793 full;full)
Sequence (P13631 whole entry, chain 1 of 2): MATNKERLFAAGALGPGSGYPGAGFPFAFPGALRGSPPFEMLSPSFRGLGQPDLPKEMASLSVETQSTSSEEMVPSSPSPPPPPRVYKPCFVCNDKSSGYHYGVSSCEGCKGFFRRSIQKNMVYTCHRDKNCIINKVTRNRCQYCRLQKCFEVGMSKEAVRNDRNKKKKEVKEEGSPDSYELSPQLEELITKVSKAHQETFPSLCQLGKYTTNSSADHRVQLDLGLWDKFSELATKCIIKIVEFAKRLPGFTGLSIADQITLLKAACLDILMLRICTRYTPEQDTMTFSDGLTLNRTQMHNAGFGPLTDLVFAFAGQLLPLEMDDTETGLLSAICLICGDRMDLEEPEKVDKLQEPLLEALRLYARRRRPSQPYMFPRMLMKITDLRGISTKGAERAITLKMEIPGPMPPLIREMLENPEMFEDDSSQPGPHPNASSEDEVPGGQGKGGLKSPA
Sequence (P19793 whole entry, chain 2 of 2): as the sequence (P19793 whole entry) above
Assay: no ligand; PBM; 270 nM : 90 nM RXRa; PBS pH 7.4, 2% milk, 0.02% Triton X-100, 1 mM DTT, BSA, 0.4 mg/ml salmon testes DNA
Conditions: tags: His kept;His cleaved; copies: 1;1; label: surface-attached array probe
How it was run: (§1)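 Random background probes are the reference for binding z-scores. These scores derive from regression-normalized fluorescence on custom Agilent 4×180K protein-binding microarrays incubated 1 h with ligand-free nuclear receptor dimers. Binding was detected with antibodies against each partner (one per run).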

Point of comparison: B6, binding signal -0.18 PBM z-score against 500 random probes. Against it:
- B7 — lower, -0.62 PBM z-score against 500 random probes
- B5 — lower, -0.47 PBM z-score against 500 random probes

Target: LXRb:RXRa (Homo sapiens, UniProt P55055;P19793 full;full)
Sequence (P55055 whole entry, chain 1 of 2): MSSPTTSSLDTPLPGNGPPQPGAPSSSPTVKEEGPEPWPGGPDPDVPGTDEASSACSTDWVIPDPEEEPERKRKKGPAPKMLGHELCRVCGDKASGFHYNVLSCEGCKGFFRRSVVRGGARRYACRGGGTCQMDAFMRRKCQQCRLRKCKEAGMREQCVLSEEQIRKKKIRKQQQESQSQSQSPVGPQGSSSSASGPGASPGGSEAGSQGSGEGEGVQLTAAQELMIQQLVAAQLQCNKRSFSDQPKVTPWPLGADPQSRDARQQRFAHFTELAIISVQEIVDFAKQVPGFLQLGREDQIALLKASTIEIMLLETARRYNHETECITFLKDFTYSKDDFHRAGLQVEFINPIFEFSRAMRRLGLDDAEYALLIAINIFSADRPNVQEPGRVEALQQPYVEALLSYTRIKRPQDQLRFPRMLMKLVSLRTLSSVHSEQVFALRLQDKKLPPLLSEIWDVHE
Sequence (P19793 whole entry, chain 2 of 2): as the sequence (P19793 whole entry) above
Assay: as above
Conditions: tags: His kept;His cleaved; copies: 1;1; label: surface-attached array probe
How it was run: as §1

Point of comparison: B8, binding signal 7.36 PBM z-score against 500 random probes. Against it:
- B9 — lower, 6.72 PBM z-score against 500 random probes
- B10 — lower, 6.78 PBM z-score against 500 random probes
- B11 — lower, 7.24 PBM z-score against 500 random probes
- B12 — higher, 7.56 PBM z-score against 500 random probes

Target: RARb:RXRa (Homo sapiens, UniProt P10826;P19793 full;full)
Sequence (P10826 whole entry, chain 1 of 2): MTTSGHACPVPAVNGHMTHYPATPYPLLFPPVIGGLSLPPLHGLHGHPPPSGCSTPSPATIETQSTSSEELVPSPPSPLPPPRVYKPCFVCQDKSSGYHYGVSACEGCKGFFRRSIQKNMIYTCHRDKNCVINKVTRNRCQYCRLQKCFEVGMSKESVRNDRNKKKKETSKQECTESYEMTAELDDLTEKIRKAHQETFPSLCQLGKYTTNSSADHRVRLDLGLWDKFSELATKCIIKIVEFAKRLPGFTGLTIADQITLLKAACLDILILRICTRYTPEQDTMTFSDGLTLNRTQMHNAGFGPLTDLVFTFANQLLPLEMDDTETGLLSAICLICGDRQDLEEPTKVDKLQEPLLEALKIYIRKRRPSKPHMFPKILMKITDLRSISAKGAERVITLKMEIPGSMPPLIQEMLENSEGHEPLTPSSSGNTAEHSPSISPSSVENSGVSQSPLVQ
Sequence (P19793 whole entry, chain 2 of 2): as the sequence (P19793 whole entry) above
Assay: as above
Conditions: tags: His kept;His cleaved; copies: 1;1; label: surface-attached array probe
How it was run: as §1

Point of comparison: B7, binding signal -0.87 PBM z-score against 500 random probes. Against it:
- B1 — lower, -0.98 PBM z-score against 500 random probes
- B5 — higher, -0.66 PBM z-score against 500 random probes

Target: FXR:RXRa (Homo sapiens, UniProt Q96RI1;P19793 full;full)
Sequence (Q96RI1 whole entry, chain 1 of 2): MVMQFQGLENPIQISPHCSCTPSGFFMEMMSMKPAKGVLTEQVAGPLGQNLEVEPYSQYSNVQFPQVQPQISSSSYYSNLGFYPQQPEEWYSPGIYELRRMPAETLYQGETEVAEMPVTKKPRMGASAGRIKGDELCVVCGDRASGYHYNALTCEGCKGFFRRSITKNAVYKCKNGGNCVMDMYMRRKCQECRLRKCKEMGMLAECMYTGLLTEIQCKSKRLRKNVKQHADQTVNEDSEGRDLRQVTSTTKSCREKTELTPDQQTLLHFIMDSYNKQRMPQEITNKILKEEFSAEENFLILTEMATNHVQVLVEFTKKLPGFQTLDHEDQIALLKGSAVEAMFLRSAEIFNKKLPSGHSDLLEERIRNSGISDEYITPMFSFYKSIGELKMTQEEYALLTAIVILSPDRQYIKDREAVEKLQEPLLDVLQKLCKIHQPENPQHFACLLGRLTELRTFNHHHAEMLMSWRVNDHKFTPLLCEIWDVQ
Sequence (P19793 whole entry, chain 2 of 2): as the sequence (P19793 whole entry) above
Assay: as above
Conditions: tags: His kept;His cleaved; copies: 1;1; label: surface-attached array probe
How it was run: as §1

Point of comparison: B7, binding signal -0.07 PBM z-score against 500 random probes. Against it:
- B1 — lower, -2.74 PBM z-score against 500 random probes
- B3 — lower, -0.37 PBM z-score against 500 random probes

Target: VDR:RXRa (Homo sapiens, UniProt P11473;P19793 full;full)
Sequence (P11473 whole entry, chain 1 of 2): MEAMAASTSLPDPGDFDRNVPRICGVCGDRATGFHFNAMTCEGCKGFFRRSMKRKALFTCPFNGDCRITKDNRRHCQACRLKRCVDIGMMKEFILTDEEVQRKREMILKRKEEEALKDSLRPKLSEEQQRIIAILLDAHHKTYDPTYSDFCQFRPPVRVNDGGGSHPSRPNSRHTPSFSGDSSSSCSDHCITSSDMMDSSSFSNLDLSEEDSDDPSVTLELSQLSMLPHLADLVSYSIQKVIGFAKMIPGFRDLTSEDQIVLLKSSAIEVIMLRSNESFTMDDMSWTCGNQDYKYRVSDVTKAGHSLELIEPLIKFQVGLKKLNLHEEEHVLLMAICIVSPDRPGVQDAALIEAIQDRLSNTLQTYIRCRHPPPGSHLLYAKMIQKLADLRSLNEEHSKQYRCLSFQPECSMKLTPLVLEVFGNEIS
Sequence (P19793 whole entry, chain 2 of 2): as the sequence (P19793 whole entry) above
Assay: as above
Conditions: tags: His kept;His cleaved; copies: 1;1; label: surface-attached array probe
How it was run: as §1

Point of comparison: B1, binding signal -0.96 PBM z-score against 500 random probes. Against it:
- B7 — higher, -0.43 PBM z-score against 500 random probes
- B2 — higher, -0.35 PBM z-score against 500 random probes
- B3 — higher, -0.22 PBM z-score against 500 random probes
- B4 — higher, 0.33 PBM z-score against 500 random probes
- B5 — higher, -0.57 PBM z-score against 500 random probes
- B6 — higher, -0.18 PBM z-score against 500 random probes
